Measurements: article doi:10.1101/2022.07.21.501072 (bioRxiv, 2022)
Substitutions are numbered along the chain they refer to. Numbers in names are those of the source.

B1: IcsA passenger C375S (secreted) (domain or fragment, Shigella flexneri, UniProt Q7BCK4 53-758, looked up)
chain: TPLSGTQELHFSEDNYEKLLTPVDGLSPLGAGEDGMDAWYITSSNPSHASRTKLRINSDIMISAGHGGAGDNNDGNSCGGNGGDSITGSDLSIINQGMILGGSGGSGADHNGDGGEAVTGDNLFIINGEIISGGHGGDSYSDSDGGNGGDAVTGVNLPIINKGTISGGNGGNNYGEGDGGNGGDAITGSSLSVINKGTFAGGNGGAAYGYGYDGYGGNAITGDNLSVINNGAILGGNGGHWGDAINGSNMTIANSGYIISGKEDDGTQNVAGNAIHITGGNNSLILHEGSVITGDVQVNNSSILKIINNDYTGTTPTIEGDLSAGDCTTVSLSGNKFTVSGDVSFGENSSLNLAGISSLEASGNMSFGNNVKVEAIINNWAQKDYKLLSADKGITGFSVSNISIINPLLTTGAIDYTKSYISDQNKLIYGLSWNDTDGDSHGEFNLKENAELTVSTILADNLSHHNINSWDGKSLTKSGEGTLILAEKNTYSGFTNINAGILKMGTVEAMTRTAGVIVNKGATLNFSGMNQTVNTLLNSGTVLINNINAPFLPDPVIVTGNMTLEKNGHVILNNSSSNVGQTYVQKGNWHGKGGILSLGAVLGNDNSKTDRLEIAGHASGITYVAVTNEGGSGDKTLEGVQIISTDSSDKNAFIQKGRIVAGSYDYRLKQGTVSGLNTNKWYLTSQMDNQESKQMSNQESTQMSSR
B2: IcsA passenger C379S (secreted) (domain or fragment, Shigella flexneri, UniProt Q7BCK4 53-758, looked up)
chain: B1 chain with S323C, C327S
B3: IcsA passenger C375S/C379S double mutant (secreted) (domain or fragment, Shigella flexneri, UniProt Q7BCK4 53-758, looked up)
chain: B1 chain with C327S

Target: the molecule itself
Assay: semi-denaturing SDS-PAGE

Protein	stoichiometry N
B1	2
B2	2
B3	2
